For the experiment, the target named is NSUN4 (residues 26–384) (human, UniProt Q96CB9 26-384). Nature of the experiment: ITC. For orientation: Isothermal titration calorimetry measures the heat released or taken up as one component is titrated into another.
Sequence of NSUN4 (residues 26–384) (Q96CB9 26-384): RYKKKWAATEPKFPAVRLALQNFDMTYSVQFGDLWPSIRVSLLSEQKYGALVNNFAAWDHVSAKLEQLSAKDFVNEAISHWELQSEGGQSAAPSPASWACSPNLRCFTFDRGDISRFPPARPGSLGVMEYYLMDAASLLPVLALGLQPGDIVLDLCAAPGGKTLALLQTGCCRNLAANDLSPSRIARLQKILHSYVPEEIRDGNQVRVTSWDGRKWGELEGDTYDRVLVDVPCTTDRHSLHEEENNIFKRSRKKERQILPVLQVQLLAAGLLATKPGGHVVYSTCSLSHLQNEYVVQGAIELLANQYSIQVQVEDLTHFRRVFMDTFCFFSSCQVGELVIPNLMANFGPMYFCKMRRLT

B1: MTERF4 (residues 66–332) (domain or fragment, human, UniProt Q7Z6M4 66-332, looked up)
chain: EPECRRNLVQCLLEKQGTPVVQGSLELERVMSSLLDMGFSNAHINELLSVRRGASLQQLLDIISEFILLGLNPEPVCVVLKKSPQLLKLPIMQMRKRSSYLQKLGLGEGKLKRVLYCCPEIFTMRQQDINDTVRLLKEKCLFTVQQVTKILHSCPSVLREDLGQLEYKFQYAYFRMGIKHPDIVKSEYLQYSLTKIKQRHIYLERLGRYQTPDKKGQTQIPNPLLKDILRVSEAEFLARTACTSVEEFQVFKKLLAREEEESESSTS
As to B1, the equilibrium dissociation constant (Kd) (in general, the free concentration of one partner at which half of the binding sites on the other are occupied at equilibrium, for simple one-to-one binding) was 0.0133 ± 0.0004 µM; the dH is -46.2 ± 0.92 kJ/mol; the stoichiometry N (as a rule, the number of molecules, sites or subunits per partner or assembly) was 1.08 ± 0.02.

(Values after paper PMC3496059 (Structure (London, England : 1993), 2012).)
